The target in test [1] is human CD22 (human) (UniProt P20273). Nature of the test: flow cytometry, Daudi cells, 10 µg/ml.
The target is the same in test [2]. Nature of the test: flow cytometry, RL cells, 10 µg/mL.
For test [3] the target is unchanged. Nature of the test: flow cytometry, Daudi cells, 10 µg/mL.
For test [4] the target is unchanged. As to the kind of experiment: flow cytometry, Ramos cells, 10 µg/mL.
For test [5] the target is unchanged. Nature of the test: flow cytometry, Raji cells, 10 µg/mL.
Test [6] shares this target. As to the kind of experiment: flow cytometry, REH cells, 10 µg/ml.

With isotype control antibody human IgG, the MFI with human CD22 (human) [1] came to 26.1; in the test with human CD22 (human) [2], 12.8; in the test with human CD22 (human) [3], 8.3; with human CD22 (human) [4], 5.4; with human CD22 (human) [5], 6.2; with human CD22 (human) [6], 4.5.

The values above are taken from patent US20160015831A1.
